Source: paper PMC2690642 (Journal of neurochemistry, 2008)

B1: regulatory (R) domain of the N-methyl-D-aspartate receptor NR2A subunit, NR2A(23-389) (domain or fragment)
chain: not shown
B2: regulatory (R) domain of the N-methyl-D-aspartate receptor NR1 subunit, NR1(19-380) (domain or fragment)
chain: not shown
B3: regulatory (R) domain of the N-methyl-D-aspartate receptor NR2B subunit, NR2B(27-390) (domain or fragment)
chain: not shown

What was measured:
[1] = target: the molecule itself; experiment: SEC
[2] = target: B3; experiment: co-IP
[3] = target: B1; experiment: co-IP

binding result [2]	binding result [3]	Binder	percentage of the monomer form [1] [%]
–	–	B1	73
binds	binds	B2	37
–	–	B3	71
